Measurements as given in patent US20250361297A1, “ANTI- SIGLEC-15 BINDING MOLECULES AND METHODS OF USE” (ADAPTAM THERAPEUTICS, S.L., priority 2024, published 2025).

Assays:
[1] = molecular target: T1, Siglec-15 on human macrophages (Homo sapiens, UniProt Q6ZMC9); experiment: Flow cytometry binding to Siglec-15 positive human macrophages; settings: compared to clone 5G12 (FIG. 3)
T1 construct: endogenous in cells; host or cells: human monocyte-derived macrophages from donor PBMCs
T1 sequence (Q6ZMC9 20-328): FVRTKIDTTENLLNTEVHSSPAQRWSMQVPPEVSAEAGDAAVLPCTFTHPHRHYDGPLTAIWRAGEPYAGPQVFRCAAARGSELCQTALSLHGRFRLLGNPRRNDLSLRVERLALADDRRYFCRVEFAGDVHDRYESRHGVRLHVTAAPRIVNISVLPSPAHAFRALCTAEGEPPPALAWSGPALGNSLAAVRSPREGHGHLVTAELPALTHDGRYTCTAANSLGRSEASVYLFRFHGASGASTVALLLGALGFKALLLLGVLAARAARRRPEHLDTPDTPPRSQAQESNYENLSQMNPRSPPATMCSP
Procedure: Post-polarization, the macrophages were harvested, washed using Flow Cytometry Staining Buffer (00-4222-26, Thermo Fisher Scientific), and subsequently incubated with fluorochrome-conjugated antibodies against Siglec-15, PD-L1, CD206, and CD163. This step was performed for 30 minutes at 4° C. in a dark environment to prevent photobleaching of the fluorochromes and to maintain the integrity of the antibodies.
Following incubation, the cells underwent a second washing step and then resuspended in 200 μL of Flow Cytometry Staining Buffer containing DAPI (1:10,000) (D1306, Invitrogen). DAPI is a nuclear stain that facilitates the identification of viable cells and enables the exclusion of dead cells or debris during analysis. The stained cells were analyzed using a FACSymphony flow cytometer (BD Biosciences). The flow cytometry data were then processed and analyzed using FlowJo software (BD Biosciences).

[2] = tested on: recombinant cynomolgus Siglec-15 protein; experiment: ELISA binding to recombinant cynomolgus Siglec-15 protein; set-up: species or system cynomolgus monkey; settings: ELISA (FIG. 11B)
Procedure: Binding to human, cynomolgus and mouse Siglec-15 by ELISA: 96-well micro plates were coated with 50 μl of 2 μg/ml cynomolgus Siglec-15-his protein (Bonopusbio, CW70-50 ug), or 2 μg/ml mouse Siglec-15-his protein (Bonopusbio, CW71-50 ug), or 2 μg/ml human Siglec-15-his protein (Bonopusbio, CW37-50 ug) in carbonate/bicarbonate buffer (pH 9.6) overnight at 4° C. ELISA plates were washed once with wash buffer (PBS+0.1% v/v Tween-20, PBST) and then blocked with 200 μl/well blocking buffer (3% w/v non-fatty milk in PBST) 1 hour at room temperature. Plates were washed 3 times and incubated with […] serially diluted anti-Siglec-15 antibodies of the disclosure or controls (starting at 198 nM, 3-fold serial dilution in PBST with 1% w/v non-fatty milk) for 2 hours at room temperature. ELISA plates were washed 3 times again and incubated with Peroxidase Goat anti-Human IgG Fc Secondary Antibody (100 μl, 1:5000 dilution in PBST buffer, A18817 Thermo Scientific) for 1 hour at room temperature. After another 3 washes, plates were incubated with 100 μl/well TMB (N301, Thermo Scientific). The reaction was stopped 2 minutes later at room temperature with 50 μl of STOP solution (N600, Thermo Scientific), and the absorbance of each well was read on a NIVO microplate reader at 450. OD values were plotted against antibody concentration. Data was analyzed using Graphpad Prism software.

human Siglec-15 [3] = molecular target: T2, human Siglec-15 (Homo sapiens, UniProt Q6ZMC9); experiment: Competitive flow cytometry assay with benchmark antibodies; assay type: binding
T2 construct: expressed in transfected cells
T2 sequence (Q6ZMC9 20-328): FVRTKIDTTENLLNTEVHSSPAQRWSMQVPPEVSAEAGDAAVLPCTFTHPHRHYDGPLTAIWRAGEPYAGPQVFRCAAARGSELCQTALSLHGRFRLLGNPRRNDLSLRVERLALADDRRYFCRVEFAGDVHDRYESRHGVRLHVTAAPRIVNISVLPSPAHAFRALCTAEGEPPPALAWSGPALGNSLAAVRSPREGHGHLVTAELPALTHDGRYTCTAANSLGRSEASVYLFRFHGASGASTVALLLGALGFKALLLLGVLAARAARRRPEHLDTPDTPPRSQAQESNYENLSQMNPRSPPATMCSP
Procedure: Epitope mapping assay by Flow cytometry: Competition with benchmark mouse IgG antibodies: 50,000 cells/well of THP-1 S15 OE were added to a round bottom 96 well plate, and centrifuged at 450×G for 5 minutes, and the supernatant was discarded. Human anti-siglec-15 IgG antibodies (starting at 198 nM, 3-fold serial dilution in staining buffer) were added to 100 μl of staining buffer and cells were resuspended with it and incubated for 40 minutes on ice. 100 μl of staining buffer were added to wells, centrifuged at 450× G for 5 minutes and the supernatants discarded. Benchmark mouse IgG antibodies were diluted at 33.3 nM and cells resuspended in 100 μl of the mix and incubated for 40 minutes on ice. Then, 100 μl of staining buffer were added to wells, centrifuged at 450×G for 5 minutes and the supernatants discarded. The secondary antibody anti-mouse IgG-Alexa647 was prepared at 1:200 dilution in 100 μl of staining buffer and added to each well, and cells were incubated for 40 minutes on ice. Cells were washed with 100 μl of staining buffer and centrifuged at 450×G for 5 minutes to discard the supernatant. Cells were resuspended in 150 μl of staining buffer and acquired in a flow cytometer.

human Siglec-15 [4] = molecular target: T2, human Siglec-15; experiment: Blocking of human Siglec-15 binding to Jurkat cells (flow cytometry); settings: flow cytometry (FIG. 22)
Procedure: Blocking assay (Flow cytometry): Briefly, the anti-Siglec-15 antibodies of the disclosure or controls were diluted with human Siglec-15-human Fc protein (Sinobiologicals, 13976-H02H1), at 66.67 nM, and incubated at room temperature for 40 minutes. Then, Jurkat T cells were harvested from cell culture flasks, washed twice, and re-suspended in PBS containing 2% v/v Bovine serum albumin (FACS buffer). Then, 0.5×10^5 cells per well in 96 well-plates were incubated in 100 μL of the antibody/Siglec-15-human Fc mixtures for 40 minutes at 4° C. The plates were washed twice with FACS buffer, and then added and incubated for 40 minutes at 4° C. in dark with 100 μl/well Goat Anti-human IgG (H+L) (1:200 dilution in FACS buffer, Thermofisher). Cells were washed twice and re-suspended in FACS buffer. Fluorescence was measured in a flow cytometer. Data was analyzed using Flowjo and Graphpad Prism software.

Siglec-15 positive cells = experiment: Internalization assay (Zenon pHrodo iFL Green); assay type: cell-based
Procedure: Internalization assay (Zhenon pHrodo): Sufficient volumes of 4× working solution of anti-Siglec-15 antibodies (10 nM) were prepared in cell culture medium for a total of 25 μL for each well of a 96-well plate. A working solution of Zenon™ pHrodo™ iFL IgG Labeling Reagent was prepared at 30 nM and 25 μL were added to each well. The mix was incubated for 5 minutes at room temperature to allow the labeling complexes to form. 5 mL of suspension cells at 2×10^6 cells/mL in cell culture medium were prepared and 50 μL of cells were added to each well of the 96-well plate containing the mix of anti-Siglec-15 antibody and the Zenon™ labeling reagent. Cells were incubated with the labeling complex for different timepoints (1-24 hours) under standard cell culture conditions. Fluorescence was analyzed by flow cytometry.

osteoclast activation = experiment: Osteoclast activation in vitro (CTX-I in culture medium); assay type: cell-based; settings: relative to baseline; control odanacatib 1 μM (FIG. 47)

recombinant cynomolgus Siglec-15 protein, sequence (as listed by the source): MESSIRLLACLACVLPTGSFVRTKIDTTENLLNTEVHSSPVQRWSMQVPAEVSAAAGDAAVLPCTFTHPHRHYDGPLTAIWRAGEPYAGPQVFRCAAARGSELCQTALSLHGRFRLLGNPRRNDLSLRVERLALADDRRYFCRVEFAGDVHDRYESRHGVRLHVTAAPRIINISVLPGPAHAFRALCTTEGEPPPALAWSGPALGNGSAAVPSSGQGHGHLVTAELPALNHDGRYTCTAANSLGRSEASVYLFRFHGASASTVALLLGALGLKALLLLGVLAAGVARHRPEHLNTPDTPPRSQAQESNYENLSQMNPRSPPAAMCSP

B1: S15B1: parental mouse anti-Siglec-15 monoclonal antibody from hybridoma; VH SEQ ID NO: 18, VL SEQ ID NO: 19 (antibody, V domains shown)
VH: QVQLQQSGPELVKPGASVKISCKASGYAFSSSWMNWVKQRPGKGLEWIGRIYPGHGETNYNGKFKDKATVTADKSSSTTYMQLSSLTSEDSAVYFCARVDNSDPYYFDYWGQGTTLTVSS
VL: DIVLTQSPASLAVSLGQRATISCRASKSVSTSGYSYMHWYQQKPGQPPKLLIYLASNLESGVPARFSGSGSGTDFTLNIHPVEEEDAATYYCQHGRELPFTFGSGTKLEIK
modifications: Clone S15B1 VH; Clone S15B1 VL
- binding to Siglec-15 on human macrophages [1]: superior binding
- extent of binding to cynomolgus Siglec-15 relative to 5G12 [2]: higher extent than 5G12
- inhibition of binding of 5G12 (benchmark 1) (human Siglec-15 [3]; competitive flow cytometry (FIG. 18A)): outperformed A2A5C7E8
- inhibition of binding of A2A5C7E8 (benchmark 2) (human Siglec-15 [3]; competitive flow cytometry (FIG. 18B)): outperformed 5G12
- blocking of binding of human Siglec-15 to Jurkat cells (human Siglec-15 [4]): approximately 60%
- percentage of cells that internalized the antibody (Siglec-15 positive cells; Zenon pHrodo iFL Green label, 24 hours at 37° C.): 100%
- internalization, fold increase over isotype control (Siglec-15 positive cells; kinetics over 1, 2, 4, 16, and 24 hours): approximately 6 fold
- effect on osteoclast activation (CTX-I) (osteoclast activation): did not significantly affect
